Laboratory results reported in paper PMC12552936, “Protein inhibitor of retinal membrane guanylyl cyclase suppresses cGMP synthesis in photoreceptors” (The Journal of Biological Chemistry, 2025).
Numbering of substitutions follows the chain as printed. Numbers in names are those of the source. Blank lines part the entries; values can stand above or below the molecule they belong to.

Experiments:
[1] = target: mOrange-tagged RetGC1 (retinal membrane guanylyl cyclase 1) (human) (UniProt Q02846)
[2] = target: T1, mOrange-tagged RetGC1 (retinal membrane guanylyl cyclase 1) (human, UniProt Q02846 52-1103); test: cell-based or functional assay
T1 sequence (looked up): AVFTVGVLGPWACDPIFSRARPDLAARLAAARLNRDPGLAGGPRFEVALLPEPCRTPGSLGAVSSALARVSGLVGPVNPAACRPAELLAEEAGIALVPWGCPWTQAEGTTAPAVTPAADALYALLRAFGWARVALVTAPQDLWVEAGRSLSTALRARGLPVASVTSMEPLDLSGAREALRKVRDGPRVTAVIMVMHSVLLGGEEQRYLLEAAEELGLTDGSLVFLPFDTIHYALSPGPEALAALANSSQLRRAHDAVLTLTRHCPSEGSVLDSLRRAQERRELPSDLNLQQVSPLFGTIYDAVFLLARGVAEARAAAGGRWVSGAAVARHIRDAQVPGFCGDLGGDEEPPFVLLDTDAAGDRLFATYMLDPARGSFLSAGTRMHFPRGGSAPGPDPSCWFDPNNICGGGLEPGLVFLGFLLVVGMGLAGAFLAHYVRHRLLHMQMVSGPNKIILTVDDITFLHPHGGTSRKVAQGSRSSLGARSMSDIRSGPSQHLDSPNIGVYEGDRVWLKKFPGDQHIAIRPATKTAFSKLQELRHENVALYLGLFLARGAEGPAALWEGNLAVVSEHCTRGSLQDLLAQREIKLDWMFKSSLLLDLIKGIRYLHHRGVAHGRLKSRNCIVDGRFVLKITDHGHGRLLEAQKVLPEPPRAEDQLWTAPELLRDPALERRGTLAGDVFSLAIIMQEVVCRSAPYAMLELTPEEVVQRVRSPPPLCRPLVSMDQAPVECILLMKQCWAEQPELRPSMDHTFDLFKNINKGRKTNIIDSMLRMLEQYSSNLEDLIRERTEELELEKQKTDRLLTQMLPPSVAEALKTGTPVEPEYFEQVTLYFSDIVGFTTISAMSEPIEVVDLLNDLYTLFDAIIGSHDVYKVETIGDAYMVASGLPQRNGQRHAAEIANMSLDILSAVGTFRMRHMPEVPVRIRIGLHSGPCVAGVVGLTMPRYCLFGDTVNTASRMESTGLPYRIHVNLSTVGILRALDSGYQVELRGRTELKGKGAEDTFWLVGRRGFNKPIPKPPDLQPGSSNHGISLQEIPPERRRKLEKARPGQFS

[3] = target: native RetGC of the mouse retina (endogenous RetGC in retinal homogenates and isolated rod outer segments)

B1: M26R GCAP1 (natural protein)
chain: MGNIMDGKSVEELSSTECHQWYKKFRTECPSGQLTLYEFRQFFGLKNLSPWASQYVEQMFETFDFNKDGYIDFMEYVAALSLVLKGKVEQKLRWYFKLYDVDGNGCIDRDELLTIIRAIRAINPCSDSTMTAEEFTDTVFSKIDVNGDGELSLEEFMEGVQKDQMLLDTLTRSLDLTRIVRRLQNGEQDEEGASGRETEAAEADG
modifications: N-terminal myristoyl
inhibition of the activity of recombinant RetGC1 in HEK293 membranes reconstituted with 1 μM GCAP1 (blocked pair: RetGC1:GCAP1), 2 mM EGTA, 10 mM MgCl2; IC50 [1]: 640 nM

B2: GCAP1-GFP (wildtype GCAP1 tagged with GFP) (natural protein, bovine, UniProt P46065 1-205, looked up)
chain: B1 chain with R26M
activation of recombinant human RetGC1 by Mg2+GCAP1 in the absence of Ca2+, dose dependence (Fig. 3A inset); EC50 [2]: ~1500 nM

Now from value to molecule:

inhibition of the activity of recombinant RetGC1 in HEK293 membranes reconstituted with 1 μM GCAP1 (blocked pair: RetGC1:GCAP1), 2 mM EGTA, 10 mM MgCl2; IC50 [1]: 300 nM
Molecule: M26R/L176F GCAP1 (from UniProt P46065 1-205) (natural protein)

total RetGC activity in the rod outer segment fraction isolated from wildtype mouse retinas with 3 μM PIGCY (32 without PIGCY) (nmol cGMP/min/mg rhodopsin) [3]: 11
inhibition by PIGCY of RetGC1 preactivated by 1 μM bovine recombinant GCAP1 (blocked pair: RetGC1:bovine GCAP1), 2 mM EGTA, 10 mM MgCl2; IC50 [2]: 51 nM
inhibition by PIGCY of RetGC1 preactivated by 1 μM human recombinant GCAP1 (blocked pair: RetGC1:human GCAP1), 2 mM EGTA, 10 mM MgCl2; IC50 [2]: 75 nM
inhibition by PIGCY of RetGC1 preactivated by 1 μM mouse recombinant GCAP1 (blocked pair: RetGC1:mouse GCAP1), 2 mM EGTA, 10 mM MgCl2; IC50 [2]: 91 nM
inhibition of the activity of recombinant RetGC1 in HEK293 membranes reconstituted with 1 μM GCAP1 (blocked pair: RetGC1:GCAP1), 2 mM EGTA, 10 mM MgCl2; IC50 [2]: 52 nM
reduction of Vmax of recombinant human RetGC1 in HEK293 membranes reconstituted with 2 μM wildtype GCAP1 by 0.35 μM PIGCY (blocked pair: RetGC1:GCAP1) [2]: > 3 fold
B3: PIGCY-GFP (protein inhibitor of retinal guanylyl cyclase, M26R/G86R/L176F GCAP1, tagged with GFP at the C-terminus) (designed binder)
chain: B1 chain with G86R, L176F
